Assay results taken from paper PMC3561323 (PLoS ONE, 2013).

Molecular target: integrin linked kinase (ILK), full-length human (human, UniProt Q13418 1-452)
Test: SEC; purified IPPmin complex on a calibrated gel-filtration column (Superdex 200 10/300 GL); 20 mM Tris pH 7.5, 150 mM NaCl, 1 mM DTT
Conditions: both partners purified

Chain of integrin linked kinase (ILK), full-length human (Q13418 whole entry): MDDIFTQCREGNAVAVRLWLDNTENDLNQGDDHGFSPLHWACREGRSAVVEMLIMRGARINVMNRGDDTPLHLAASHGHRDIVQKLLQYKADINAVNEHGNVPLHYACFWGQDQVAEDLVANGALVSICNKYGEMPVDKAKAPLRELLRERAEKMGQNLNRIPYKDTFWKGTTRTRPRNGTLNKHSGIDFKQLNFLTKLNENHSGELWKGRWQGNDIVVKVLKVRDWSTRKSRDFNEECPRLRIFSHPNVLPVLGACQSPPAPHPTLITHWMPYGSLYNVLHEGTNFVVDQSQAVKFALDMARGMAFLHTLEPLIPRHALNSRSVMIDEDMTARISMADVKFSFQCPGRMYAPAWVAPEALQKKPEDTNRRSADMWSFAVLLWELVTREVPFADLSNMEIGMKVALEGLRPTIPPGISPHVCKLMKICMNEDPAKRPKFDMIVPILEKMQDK

B1: LIM1 domain of PINCH1 (domain or fragment, human, UniProt P48059 6-68, looked up)
chain: ASATCERCKGGFAPAEKIVNSNGELYHEQCFVCAQCFQQFPEGLFYEFEGRKYCEHDFQMLFA
B1: binds.
